The values below come from US20080050776A1.

Assay [1] deals with p75 neurotrophin receptor (p75NTR) (UniProt P07174). The assay is described as follows: cell-based or functional assay.
For another assay, the target named is Sortilin co-receptor (UniProt O54861). Nature of the assay: cell-based or functional assay.
UniProt O54861, sequence (O54861 74-825 limits assumed): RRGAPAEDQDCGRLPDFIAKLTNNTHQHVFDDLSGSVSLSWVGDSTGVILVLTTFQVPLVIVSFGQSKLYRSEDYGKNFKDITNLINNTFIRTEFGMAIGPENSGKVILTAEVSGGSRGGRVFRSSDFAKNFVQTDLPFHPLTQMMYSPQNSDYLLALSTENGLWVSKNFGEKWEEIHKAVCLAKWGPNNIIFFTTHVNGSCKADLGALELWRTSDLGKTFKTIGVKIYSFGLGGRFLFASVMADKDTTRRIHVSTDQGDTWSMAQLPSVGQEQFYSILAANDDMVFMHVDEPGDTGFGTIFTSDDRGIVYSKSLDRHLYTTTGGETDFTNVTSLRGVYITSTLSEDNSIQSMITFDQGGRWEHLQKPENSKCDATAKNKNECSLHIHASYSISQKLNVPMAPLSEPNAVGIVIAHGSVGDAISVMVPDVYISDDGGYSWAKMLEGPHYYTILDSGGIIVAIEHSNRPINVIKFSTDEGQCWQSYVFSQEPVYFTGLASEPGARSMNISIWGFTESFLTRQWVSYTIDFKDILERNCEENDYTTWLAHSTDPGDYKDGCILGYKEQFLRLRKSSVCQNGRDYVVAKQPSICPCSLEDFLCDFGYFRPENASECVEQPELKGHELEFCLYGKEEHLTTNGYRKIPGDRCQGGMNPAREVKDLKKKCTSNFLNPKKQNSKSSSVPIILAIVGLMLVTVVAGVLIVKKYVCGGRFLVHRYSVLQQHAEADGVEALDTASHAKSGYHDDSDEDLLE

UniProt P07174, sequence (P07174 30-425): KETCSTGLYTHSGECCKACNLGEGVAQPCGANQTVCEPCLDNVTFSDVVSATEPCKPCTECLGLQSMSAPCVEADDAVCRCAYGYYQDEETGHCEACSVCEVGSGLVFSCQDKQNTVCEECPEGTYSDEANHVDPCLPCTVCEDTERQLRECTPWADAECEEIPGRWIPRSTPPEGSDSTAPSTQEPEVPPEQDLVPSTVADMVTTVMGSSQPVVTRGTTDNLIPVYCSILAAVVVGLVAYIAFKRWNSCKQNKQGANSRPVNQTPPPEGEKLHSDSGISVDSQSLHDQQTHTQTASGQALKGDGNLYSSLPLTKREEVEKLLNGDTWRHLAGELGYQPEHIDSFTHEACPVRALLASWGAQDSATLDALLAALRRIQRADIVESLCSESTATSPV

As for “proNGF123 (mutated mouse proNGF with mutations at all three processing sites) (ligand)”, the cell death of PC-12 cells, trypan blue analysis 72 hours post treatment (2 nM) (in assay [1]; with Sortilin co-receptor) was > 90% throughout.
